According to US20100159011A1, “Compositions For Biomedical Applications” (University of Massachusetts Medical School, priority 2007, published 2010):

System: murine macrophage RAW264.7 cells
Experiment: Osteoclastic differentiation of RAW264.7 cells (TRAP stain)
Format: cell-based
Conditions: for osteoclast differentiation of RAW264.7 (TRAP): no graft carrier
Experimental: Grafts (5×5×1 mm, FlexBone 25% HA-25% TCP) were pre-absorbed with varying amounts of growth factors and cytokines to provide an exogenous supply for remodeling. […] The preferred loading dose of RANKL (10 ng/FlexBone graft) was determined by the osteoclastic differentiation of macrophage RAW264.7, induced by the RANKL released from the graft as indicated by positive TRAP stains (purple) of multinucleated cells on Day 6. […] Finally, the preferred loading dose of rhVEGF165 in stimulating the proliferation of human vascular endothelial cells in culture was determined to be 5 ng/graft.
Osteoclastic differentiation of murine macrophage RAW264.7 cells induced by the rmRANKL released from FlexBone. The bioactivity of the exogenous rmRANKL released from FlexBone is evaluated by its ability to induce osteoclastic differentiation of murine macrophage RAW264.7 cells six days after placing the FlexBone graft pre-loaded with rnRANKL in the RAW264.7 culture. RAW264.7 cells were seeded at 10,000/cm^2 in a 24-well plate in alpha-MEM (0.5 mL/well) supplemented with 10% FBS and 1% Pen-Strep, and allowed to attach overnight. One FlexBone or pHEMA graft freshly loaded with 10-ng rmRANKL was then added to each well (N=3 for each combination) on day one, and the culture was continued for 6 days with media change every two days without additional supplement of rmRANKL. In the positive control well, 10 ng rmRANKL was supplemented directly in the culture media without a graft carrier every two days. In the negative control well, 10 ng rmRANKL was supplemented directly in the culture media without a graft carrier on day one, and the medium was changed every two days without any additional supplement of rmRANKL. […] Grafts were removed from all wells before the cells were stained for tartrate-resistant acid phosphatase (TRAP) activities using the Sigma TRAP kit following the manufacturer's instructions.

B1: rmRANKL: recombinant receptor activator of nuclear factor κ ligand, purchased from R&D Systems (protein, UniProt O35235 139-316, looked up)
Tumor necrosis factor ligand …: FSGAPAMMEGSWLDVAQRGKPEAQPFAHLTINAASIPSGSHKVTLSSWYHDRGWAKISNMTLSNGKLRVNQDGFYYLYANICFRHHETSGSVPTDYLQLMVYVVKTSIKIPSSHNLMKGGSTKNWSGNSEFHFYSINVGGFFKLRAGEEISIQVSNPSLLDPDQDATYFGAFKVQDID
Continued supplement of 10-ng every other day, day six
  osteoclast differentiation of RAW264.7 (TRAP): led to the formation of TRAP-positive multinucleated osteoclasts by day six
Determined by osteoclastic differentiation of RAW264.7, TRAP stains on Day 6
  preferred loading dose: 10 ng/FlexBone graft
No graft control
  supplement needed every other day to induce differentiation: 5 ng
Single supplement of 10-ng directly to the culture
  osteoclast differentiation of RAW264.7 (TRAP): not sufficient in inducing the osteoclast differentiation
